This is an account of results in PMC11695602 (Communications Biology, 2025).

In general, Kd refers to a measure of binding affinity in units of concentration.

Assay [1] addresses T1, recombinant human CTNNA3 (CTNNA3-FLAG) (human, UniProt Q9UI47-1 1-895).
T1 sequence (looked up): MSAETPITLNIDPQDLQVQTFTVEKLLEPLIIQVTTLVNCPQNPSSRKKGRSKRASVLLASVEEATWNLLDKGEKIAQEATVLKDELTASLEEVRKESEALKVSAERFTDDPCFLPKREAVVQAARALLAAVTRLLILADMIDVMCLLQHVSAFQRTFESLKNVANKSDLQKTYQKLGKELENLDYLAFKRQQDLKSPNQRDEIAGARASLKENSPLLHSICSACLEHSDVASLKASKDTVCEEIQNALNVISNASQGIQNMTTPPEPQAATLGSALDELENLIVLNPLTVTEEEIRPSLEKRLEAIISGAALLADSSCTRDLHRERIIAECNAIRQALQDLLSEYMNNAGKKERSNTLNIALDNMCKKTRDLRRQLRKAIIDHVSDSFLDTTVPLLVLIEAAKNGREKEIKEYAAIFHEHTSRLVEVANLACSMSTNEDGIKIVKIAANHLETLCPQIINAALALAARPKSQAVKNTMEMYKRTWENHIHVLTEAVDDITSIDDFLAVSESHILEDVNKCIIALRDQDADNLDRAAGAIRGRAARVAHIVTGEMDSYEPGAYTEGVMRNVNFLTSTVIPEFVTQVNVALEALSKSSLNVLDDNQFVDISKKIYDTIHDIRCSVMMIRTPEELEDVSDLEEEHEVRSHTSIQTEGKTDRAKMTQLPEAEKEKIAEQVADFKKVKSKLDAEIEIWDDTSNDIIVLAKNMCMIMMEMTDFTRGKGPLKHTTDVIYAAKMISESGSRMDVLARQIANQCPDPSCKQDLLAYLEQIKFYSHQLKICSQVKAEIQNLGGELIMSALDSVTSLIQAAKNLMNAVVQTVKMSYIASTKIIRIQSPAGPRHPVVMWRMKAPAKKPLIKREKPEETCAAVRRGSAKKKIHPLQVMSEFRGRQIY
In words: co-IP.

The target in assay [2] is recombinant human p53 (p53-FLAG) (human, UniProt P04637 1-393). In words: co-IP.
The target in assay [3] is T1, recombinant human CTNNA3 (CTNNA3-FLAG). The experiment in a line: BLI. In general terms: Biolayer interferometry detects binding as a change in optical thickness at a sensor tip.
For assay [4] the target is unchanged. The experiment in a line: MST.

Chain of recombinant human p53 (p53-FLAG) (P04637 whole entry): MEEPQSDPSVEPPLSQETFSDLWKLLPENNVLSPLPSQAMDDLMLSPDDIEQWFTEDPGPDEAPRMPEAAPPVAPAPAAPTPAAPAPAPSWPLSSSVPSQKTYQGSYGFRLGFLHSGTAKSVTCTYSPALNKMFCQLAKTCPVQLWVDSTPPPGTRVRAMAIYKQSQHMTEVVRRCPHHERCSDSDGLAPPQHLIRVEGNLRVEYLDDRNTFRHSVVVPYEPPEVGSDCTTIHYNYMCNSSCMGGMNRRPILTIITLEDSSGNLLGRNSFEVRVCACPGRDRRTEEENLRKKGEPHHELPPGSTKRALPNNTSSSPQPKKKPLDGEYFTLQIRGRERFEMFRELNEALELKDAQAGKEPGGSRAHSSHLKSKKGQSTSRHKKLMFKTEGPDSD

B1: recombinant human FLAG-tagged fortilin (fortilin-FLAG) (natural protein, UniProt P13693 1-172, looked up)
chain: MIIYRDLISHDEMFSDIYKIREIADGLCLEVEGKMVSRTEGNIDDSLIGGNASAEGPEGEGTESTVITGVDIVMNHHLQETSFTKEAYKKYIKDYMKSIKGKLEEQRPERVKPFMTGAAEQIKHILANFKNYQFFIGENMNPDGMVALLDYREDGVTPYMIFFKDGLEMEKC
Consider B1, for which the binding result in assay [1] and in assay [2] was “binds” in each case.

B2: recombinant human fortilin (rh-fortilin), Strep-tagged, biotinylated (natural protein, UniProt P13693 1-172, looked up)
chain: MIIYRDLISHDEMFSDIYKIREIADGLCLEVEGKMVSRTEGNIDDSLIGGNASAEGPEGEGTESTVITGVDIVMNHHLQETSFTKEAYKKYIKDYMKSIKGKLEEQRPERVKPFMTGAAEQIKHILANFKNYQFFIGENMNPDGMVALLDYREDGVTPYMIFFKDGLEMEKC
modifications: biotin
In the case of B2, in assay [3], the Kd turned out to be 36.1 nM.

B3: recombinant human fortilin (rh-fortilin), Strep-tagged, red-maleimide-labelled (natural protein, UniProt P13693 1-172, looked up)
chain: MIIYRDLISHDEMFSDIYKIREIADGLCLEVEGKMVSRTEGNIDDSLIGGNASAEGPEGEGTESTVITGVDIVMNHHLQETSFTKEAYKKYIKDYMKSIKGKLEEQRPERVKPFMTGAAEQIKHILANFKNYQFFIGENMNPDGMVALLDYREDGVTPYMIFFKDGLEMEKC
modifications: red-maleimide fluorescent dye (Monolith red-maleimide 2nd generation protein labeling kit)
In the case of B3, the Kd in assay [4] was 33.2 nM.
